These results are taken from patent publication US20230301998.

Numbering of substitutions follows the chain as printed.

In data set [1] the test system is T1, V5-tagged IFI204 RR12/538AA.
T1 sequence: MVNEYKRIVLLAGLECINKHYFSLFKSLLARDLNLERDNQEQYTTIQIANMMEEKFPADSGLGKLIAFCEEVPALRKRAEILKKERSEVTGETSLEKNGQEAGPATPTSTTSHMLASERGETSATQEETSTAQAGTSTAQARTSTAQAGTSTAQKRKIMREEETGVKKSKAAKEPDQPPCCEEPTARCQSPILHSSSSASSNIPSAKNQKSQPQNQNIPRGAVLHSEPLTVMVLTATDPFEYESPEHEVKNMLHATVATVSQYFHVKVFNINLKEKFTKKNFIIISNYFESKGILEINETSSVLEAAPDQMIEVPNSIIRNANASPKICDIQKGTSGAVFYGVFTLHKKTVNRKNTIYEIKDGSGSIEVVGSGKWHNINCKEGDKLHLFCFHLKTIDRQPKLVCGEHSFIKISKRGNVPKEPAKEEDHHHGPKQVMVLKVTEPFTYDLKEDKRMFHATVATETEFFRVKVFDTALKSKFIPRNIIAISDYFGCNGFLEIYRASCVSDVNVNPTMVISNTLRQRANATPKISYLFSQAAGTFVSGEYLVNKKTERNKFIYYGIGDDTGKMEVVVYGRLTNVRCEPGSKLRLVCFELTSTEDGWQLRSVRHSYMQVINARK

The test system of the next data set is T2, V5-tagged IFI204 WT.
T2 sequence: T1 sequence with A12R, A538R

The subject of another data set is T3, V5-tagged IFI204 R12A.
T3 sequence: T1 sequence with A538R

For the next data set, the system named is T4, V5-tagged IFI204 R538A.
T4 sequence: T1 sequence with A12R

On to recombinant active PRMT5 plus WDR77, for which the “in vitro methylation (3H-SAM, autoradiography)” value in data set [1] is listed as “Immunopurified WT IFI204, but not a mutant form lacking either Arg12, Arg538 or both, was methylated in vitro by recombinant PRMT5”; in the data set with V5-tagged IFI204 WT, “IFI204 WT protein was methylated by PRMT5 /WDR77”; with V5-tagged IFI204 R12A, “Immunopurified WT IFI204, but not a mutant form lacking either Arg12, Arg538 or both, was methylated in vitro by recombinant PRMT5”; with V5-tagged IFI204 R538A, “Immunopurified WT IFI204, but not a mutant form lacking either Arg12, Arg538 or both, was methylated in vitro by recombinant PRMT5”.
